The text below walks through data of US20150361450.

Read-outs that look alike come from different tables or passages of the source.

Series [1] concerns KARS2 (mature mitochondrial lysyl-tRNA synthetase, lacking predicted mitochondrial targeting presequence) (Homo sapiens). As to conditions: CITED apparent Kd, printed as 250+/240; cited from earlier work.
Series [2] relates to preKARS2 (precursor of human mitochondrial lysyl-tRNA synthetase) (Homo sapiens), Q15046-2. As to conditions: CITED targeting sequence said to completely abolish RNA binding; cited from earlier work.
Series [3] has as its system preMSK1p (precursor of yeast mitochondrial lysyl-tRNA synthetase) (Saccharomyces cerevisiae). As to conditions: CITED previously evaluated apparent Kd, printed as 280+/260; cited from earlier work.
In series [4] the test system is preKARS2 (precursor of human mitochondrial lysyl-tRNA synthetase) (Homo sapiens), Q15046-2. The experiment in a line: EMSA. As to conditions: apparent Kd, error printed as 300+/250 (likely +/-50); 20 mM Tris-HCl pH 7.5, 150 mM NaCl, 10 mM MgCl2, 30 C.

Chain of preKARS2 (precursor of human mitochondrial lysyl-tRNA synthetase) (Homo sapiens), Q15046-2 (Q15046 other isoform, or with tags, fused parts or gaps): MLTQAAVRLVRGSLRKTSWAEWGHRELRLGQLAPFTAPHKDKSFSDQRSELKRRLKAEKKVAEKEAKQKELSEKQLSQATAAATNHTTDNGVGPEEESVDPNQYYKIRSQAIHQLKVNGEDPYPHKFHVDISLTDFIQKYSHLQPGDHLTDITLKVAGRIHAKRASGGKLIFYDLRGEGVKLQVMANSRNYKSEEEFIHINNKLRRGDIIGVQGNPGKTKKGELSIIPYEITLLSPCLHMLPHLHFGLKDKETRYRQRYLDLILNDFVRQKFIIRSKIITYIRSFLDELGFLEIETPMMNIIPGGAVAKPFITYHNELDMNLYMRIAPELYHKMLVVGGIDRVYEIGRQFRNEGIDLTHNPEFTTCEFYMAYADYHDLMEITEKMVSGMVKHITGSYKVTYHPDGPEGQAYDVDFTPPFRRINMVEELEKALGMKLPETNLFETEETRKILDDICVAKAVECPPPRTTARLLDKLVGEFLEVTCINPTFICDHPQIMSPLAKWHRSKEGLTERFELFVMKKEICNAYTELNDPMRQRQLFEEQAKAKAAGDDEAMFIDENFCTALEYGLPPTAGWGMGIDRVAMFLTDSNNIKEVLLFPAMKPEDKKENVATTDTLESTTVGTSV

Take human cytosolic tRNALys3: the Kd was 250 nM in series [1] and 100000 nM in series [2].

As for tRK1 (yeast tRNALys CUU, T7 transcript), the Kd is 280 nM in series [3] and 300 nM in series [4].
